T1: FcγRIIa R (extracellular domain, His tag at the C terminus) (human, UniProt P12318 34-217)
T1 construct: extracellular domain; Soluble analyte in Biacore; also called FcgRIIa R type; 2aR
T1 sequence (looked up): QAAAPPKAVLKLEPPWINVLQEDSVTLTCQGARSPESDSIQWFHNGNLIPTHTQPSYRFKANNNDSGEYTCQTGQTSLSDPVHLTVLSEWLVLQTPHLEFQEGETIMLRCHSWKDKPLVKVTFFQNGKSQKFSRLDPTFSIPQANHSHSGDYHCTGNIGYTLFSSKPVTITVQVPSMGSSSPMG


target: T1, FcγRIIa R (extracellular domain, His …); test: SPR (Biacore), relative binding, control GpH7-A5/GpH7-B3/GpL16-k0 = 100
Description: Analysis of interaction between objective antibody and the FcγR was carried out using Biacore T100 (GE Healthcare). HBS-EP+ (GE Healthcare) was used as the running buffer, and the measurement temperature was set to 25° C. Chips produced by immobilizing the antigen peptide by the amine coupling method to a Series S Sencor Chip CM5 (GE Healthcare), or alternatively, chips produced by allowing preliminarily biotinylated antigen peptides to interact with and immobilize onto a Series S Sensor Chip SA (certified) (GE Healthcare) were used. Antibodies of interest were captured onto an antigen peptide-immobilized chip, and allowed to interact to each FcγR diluted with running buffer. To regenerate and repeatedly use the chip, the antibodies captured on the chip were washed off by reacting 10 mM glycine-HCl, pH 1.5.

Binder	He/Con_2aR
GpH7-A5/GpH7-B3 variant T335_15Y/GpL16-k0 (antibody, human IgG1, kappa, heterodimerized; also called He Ab) heavy 1: not shown heavy 2: not shown light: DIVMTQSPLSLPVTPGEPASISCQASESLVHSNRNTYLHWYLQKPGQSPQLLIYKVSNRFSGVPDRFSGSGSGTDFTLKISRVEAEDVGVYYCSQNTHVPPTFGQGTKVEIERTVAAPSVFIFPPSDEQLKSGTASVVCLLNNFYPREAKVQWKVDNALQSGNSQESVTEQDSKDSTYSLSSTLTLSKADYEKHKVYACEVTHQGLSSPVTKSFNRGEC	111 % of control
GpH7-A5/GpH7-B3 variant G236_09D/GpL16-k0 (antibody, human IgG1, kappa, heterodimerized; also called He Ab) heavy 1: not shown heavy 2: not shown light: DIVMTQSPLSLPVTPGEPASISCQASESLVHSNRNTYLHWYLQKPGQSPQLLIYKVSNRFSGVPDRFSGSGSGTDFTLKISRVEAEDVGVYYCSQNTHVPPTFGQGTKVEIERTVAAPSVFIFPPSDEQLKSGTASVVCLLNNFYPREAKVQWKVDNALQSGNSQESVTEQDSKDSTYSLSSTLTLSKADYEKHKVYACEVTHQGLSSPVTKSFNRGEC	106 % of control
GpH7-A5/GpH7-B3 variant G236_10E/GpL16-k0 (antibody, human IgG1, kappa, heterodimerized; also called He Ab) heavy 1: not shown heavy 2: not shown light: DIVMTQSPLSLPVTPGEPASISCQASESLVHSNRNTYLHWYLQKPGQSPQLLIYKVSNRFSGVPDRFSGSGSGTDFTLKISRVEAEDVGVYYCSQNTHVPPTFGQGTKVEIERTVAAPSVFIFPPSDEQLKSGTASVVCLLNNFYPREAKVQWKVDNALQSGNSQESVTEQDSKDSTYSLSSTLTLSKADYEKHKVYACEVTHQGLSSPVTKSFNRGEC	125 % of control
GpH7-A5/GpH7-B3 variant H268_09D/GpL16-k0 (antibody, human IgG1, kappa, heterodimerized; also called He Ab) heavy 1: not shown heavy 2: not shown light: DIVMTQSPLSLPVTPGEPASISCQASESLVHSNRNTYLHWYLQKPGQSPQLLIYKVSNRFSGVPDRFSGSGSGTDFTLKISRVEAEDVGVYYCSQNTHVPPTFGQGTKVEIERTVAAPSVFIFPPSDEQLKSGTASVVCLLNNFYPREAKVQWKVDNALQSGNSQESVTEQDSKDSTYSLSSTLTLSKADYEKHKVYACEVTHQGLSSPVTKSFNRGEC	149 % of control
GpH7-A5/GpH7-B3 variant H268_10E/GpL16-k0 (antibody, human IgG1, kappa, heterodimerized; also called He Ab) heavy 1: not shown heavy 2: not shown light: DIVMTQSPLSLPVTPGEPASISCQASESLVHSNRNTYLHWYLQKPGQSPQLLIYKVSNRFSGVPDRFSGSGSGTDFTLKISRVEAEDVGVYYCSQNTHVPPTFGQGTKVEIERTVAAPSVFIFPPSDEQLKSGTASVVCLLNNFYPREAKVQWKVDNALQSGNSQESVTEQDSKDSTYSLSSTLTLSKADYEKHKVYACEVTHQGLSSPVTKSFNRGEC	148 % of control
GpH7-A5/GpH7-B3 variant H268_13S/GpL16-k0 (antibody, human IgG1, kappa, heterodimerized; also called He Ab) heavy 1: not shown heavy 2: not shown light: DIVMTQSPLSLPVTPGEPASISCQASESLVHSNRNTYLHWYLQKPGQSPQLLIYKVSNRFSGVPDRFSGSGSGTDFTLKISRVEAEDVGVYYCSQNTHVPPTFGQGTKVEIERTVAAPSVFIFPPSDEQLKSGTASVVCLLNNFYPREAKVQWKVDNALQSGNSQESVTEQDSKDSTYSLSSTLTLSKADYEKHKVYACEVTHQGLSSPVTKSFNRGEC	127 % of control
GpH7-A5/GpH7-B3 variant H268_18N/GpL16-k0 (antibody, human IgG1, kappa, heterodimerized; also called He Ab) heavy 1: not shown heavy 2: not shown light: DIVMTQSPLSLPVTPGEPASISCQASESLVHSNRNTYLHWYLQKPGQSPQLLIYKVSNRFSGVPDRFSGSGSGTDFTLKISRVEAEDVGVYYCSQNTHVPPTFGQGTKVEIERTVAAPSVFIFPPSDEQLKSGTASVVCLLNNFYPREAKVQWKVDNALQSGNSQESVTEQDSKDSTYSLSSTLTLSKADYEKHKVYACEVTHQGLSSPVTKSFNRGEC	128 % of control
GpH7-A5/GpH7-B3 variant I332_04F/GpL16-k0 (antibody, human IgG1, kappa, heterodimerized; also called He Ab) heavy 1: not shown heavy 2: not shown light: DIVMTQSPLSLPVTPGEPASISCQASESLVHSNRNTYLHWYLQKPGQSPQLLIYKVSNRFSGVPDRFSGSGSGTDFTLKISRVEAEDVGVYYCSQNTHVPPTFGQGTKVEIERTVAAPSVFIFPPSDEQLKSGTASVVCLLNNFYPREAKVQWKVDNALQSGNSQESVTEQDSKDSTYSLSSTLTLSKADYEKHKVYACEVTHQGLSSPVTKSFNRGEC	105 % of control
GpH7-A5/GpH7-B3 variant I332_09D/GpL16-k0 (antibody, human IgG1, kappa, heterodimerized; also called He Ab) heavy 1: not shown heavy 2: not shown light: DIVMTQSPLSLPVTPGEPASISCQASESLVHSNRNTYLHWYLQKPGQSPQLLIYKVSNRFSGVPDRFSGSGSGTDFTLKISRVEAEDVGVYYCSQNTHVPPTFGQGTKVEIERTVAAPSVFIFPPSDEQLKSGTASVVCLLNNFYPREAKVQWKVDNALQSGNSQESVTEQDSKDSTYSLSSTLTLSKADYEKHKVYACEVTHQGLSSPVTKSFNRGEC	119 % of control
GpH7-A5/GpH7-B3 variant I332_10E/GpL16-k0 (antibody, human IgG1, kappa, heterodimerized; also called He Ab) heavy 1: not shown heavy 2: not shown light: DIVMTQSPLSLPVTPGEPASISCQASESLVHSNRNTYLHWYLQKPGQSPQLLIYKVSNRFSGVPDRFSGSGSGTDFTLKISRVEAEDVGVYYCSQNTHVPPTFGQGTKVEIERTVAAPSVFIFPPSDEQLKSGTASVVCLLNNFYPREAKVQWKVDNALQSGNSQESVTEQDSKDSTYSLSSTLTLSKADYEKHKVYACEVTHQGLSSPVTKSFNRGEC	114 % of control
GpH7-A5/GpH7-B3 variant I332_15Y/GpL16-k0 (antibody, human IgG1, kappa, heterodimerized; also called He Ab) heavy 1: not shown heavy 2: not shown light: DIVMTQSPLSLPVTPGEPASISCQASESLVHSNRNTYLHWYLQKPGQSPQLLIYKVSNRFSGVPDRFSGSGSGTDFTLKISRVEAEDVGVYYCSQNTHVPPTFGQGTKVEIERTVAAPSVFIFPPSDEQLKSGTASVVCLLNNFYPREAKVQWKVDNALQSGNSQESVTEQDSKDSTYSLSSTLTLSKADYEKHKVYACEVTHQGLSSPVTKSFNRGEC	110 % of control
GpH7-A5/GpH7-B3 variant K326_06M/GpL16-k0 (antibody, human IgG1, kappa, heterodimerized; also called He Ab) heavy 1: not shown heavy 2: not shown light: DIVMTQSPLSLPVTPGEPASISCQASESLVHSNRNTYLHWYLQKPGQSPQLLIYKVSNRFSGVPDRFSGSGSGTDFTLKISRVEAEDVGVYYCSQNTHVPPTFGQGTKVEIERTVAAPSVFIFPPSDEQLKSGTASVVCLLNNFYPREAKVQWKVDNALQSGNSQESVTEQDSKDSTYSLSSTLTLSKADYEKHKVYACEVTHQGLSSPVTKSFNRGEC	138 % of control
GpH7-A5/GpH7-B3 variant K326_09D/GpL16-k0 (antibody, human IgG1, kappa, heterodimerized; also called He Ab) heavy 1: not shown heavy 2: not shown light: DIVMTQSPLSLPVTPGEPASISCQASESLVHSNRNTYLHWYLQKPGQSPQLLIYKVSNRFSGVPDRFSGSGSGTDFTLKISRVEAEDVGVYYCSQNTHVPPTFGQGTKVEIERTVAAPSVFIFPPSDEQLKSGTASVVCLLNNFYPREAKVQWKVDNALQSGNSQESVTEQDSKDSTYSLSSTLTLSKADYEKHKVYACEVTHQGLSSPVTKSFNRGEC	148 % of control
GpH7-A5/GpH7-B3 variant K326_10E/GpL16-k0 (antibody, human IgG1, kappa, heterodimerized; also called He Ab) heavy 1: not shown heavy 2: not shown light: DIVMTQSPLSLPVTPGEPASISCQASESLVHSNRNTYLHWYLQKPGQSPQLLIYKVSNRFSGVPDRFSGSGSGTDFTLKISRVEAEDVGVYYCSQNTHVPPTFGQGTKVEIERTVAAPSVFIFPPSDEQLKSGTASVVCLLNNFYPREAKVQWKVDNALQSGNSQESVTEQDSKDSTYSLSSTLTLSKADYEKHKVYACEVTHQGLSSPVTKSFNRGEC	148 % of control
GpH7-A5/GpH7-B3 variant K326_14T/GpL16-k0 (antibody, human IgG1, kappa, heterodimerized; also called He Ab) heavy 1: not shown heavy 2: not shown light: DIVMTQSPLSLPVTPGEPASISCQASESLVHSNRNTYLHWYLQKPGQSPQLLIYKVSNRFSGVPDRFSGSGSGTDFTLKISRVEAEDVGVYYCSQNTHVPPTFGQGTKVEIERTVAAPSVFIFPPSDEQLKSGTASVVCLLNNFYPREAKVQWKVDNALQSGNSQESVTEQDSKDSTYSLSSTLTLSKADYEKHKVYACEVTHQGLSSPVTKSFNRGEC	134 % of control
GpH7-A5/GpH7-B3 variant K326_16H/GpL16-k0 (antibody, human IgG1, kappa, heterodimerized; also called He Ab) heavy 1: not shown heavy 2: not shown light: DIVMTQSPLSLPVTPGEPASISCQASESLVHSNRNTYLHWYLQKPGQSPQLLIYKVSNRFSGVPDRFSGSGSGTDFTLKISRVEAEDVGVYYCSQNTHVPPTFGQGTKVEIERTVAAPSVFIFPPSDEQLKSGTASVVCLLNNFYPREAKVQWKVDNALQSGNSQESVTEQDSKDSTYSLSSTLTLSKADYEKHKVYACEVTHQGLSSPVTKSFNRGEC	120 % of control
GpH7-A5/GpH7-B3 variant K326_19Q/GpL16-k0 (antibody, human IgG1, kappa, heterodimerized; also called He Ab) heavy 1: not shown heavy 2: not shown light: DIVMTQSPLSLPVTPGEPASISCQASESLVHSNRNTYLHWYLQKPGQSPQLLIYKVSNRFSGVPDRFSGSGSGTDFTLKISRVEAEDVGVYYCSQNTHVPPTFGQGTKVEIERTVAAPSVFIFPPSDEQLKSGTASVVCLLNNFYPREAKVQWKVDNALQSGNSQESVTEQDSKDSTYSLSSTLTLSKADYEKHKVYACEVTHQGLSSPVTKSFNRGEC	129 % of control
GpH7-A5/GpH7-B3 variant K334_03V/GpL16-k0 (antibody, human IgG1, kappa, heterodimerized; also called He Ab) heavy 1: not shown heavy 2: not shown light: DIVMTQSPLSLPVTPGEPASISCQASESLVHSNRNTYLHWYLQKPGQSPQLLIYKVSNRFSGVPDRFSGSGSGTDFTLKISRVEAEDVGVYYCSQNTHVPPTFGQGTKVEIERTVAAPSVFIFPPSDEQLKSGTASVVCLLNNFYPREAKVQWKVDNALQSGNSQESVTEQDSKDSTYSLSSTLTLSKADYEKHKVYACEVTHQGLSSPVTKSFNRGEC	117 % of control
GpH7-A5/GpH7-B3 variant K334_07I/GpL16-k0 (antibody, human IgG1, kappa, heterodimerized; also called He Ab) heavy 1: not shown heavy 2: not shown light: DIVMTQSPLSLPVTPGEPASISCQASESLVHSNRNTYLHWYLQKPGQSPQLLIYKVSNRFSGVPDRFSGSGSGTDFTLKISRVEAEDVGVYYCSQNTHVPPTFGQGTKVEIERTVAAPSVFIFPPSDEQLKSGTASVVCLLNNFYPREAKVQWKVDNALQSGNSQESVTEQDSKDSTYSLSSTLTLSKADYEKHKVYACEVTHQGLSSPVTKSFNRGEC	114 % of control
GpH7-A5/GpH7-B3 variant K334_14T/GpL16-k0 (antibody, human IgG1, kappa, heterodimerized; also called He Ab) heavy 1: not shown heavy 2: not shown light: DIVMTQSPLSLPVTPGEPASISCQASESLVHSNRNTYLHWYLQKPGQSPQLLIYKVSNRFSGVPDRFSGSGSGTDFTLKISRVEAEDVGVYYCSQNTHVPPTFGQGTKVEIERTVAAPSVFIFPPSDEQLKSGTASVVCLLNNFYPREAKVQWKVDNALQSGNSQESVTEQDSKDSTYSLSSTLTLSKADYEKHKVYACEVTHQGLSSPVTKSFNRGEC	112 % of control
GpH7-A5/GpH7-B3 variant K334_15Y/GpL16-k0 (antibody, human IgG1, kappa, heterodimerized; also called He Ab) heavy 1: not shown heavy 2: not shown light: DIVMTQSPLSLPVTPGEPASISCQASESLVHSNRNTYLHWYLQKPGQSPQLLIYKVSNRFSGVPDRFSGSGSGTDFTLKISRVEAEDVGVYYCSQNTHVPPTFGQGTKVEIERTVAAPSVFIFPPSDEQLKSGTASVVCLLNNFYPREAKVQWKVDNALQSGNSQESVTEQDSKDSTYSLSSTLTLSKADYEKHKVYACEVTHQGLSSPVTKSFNRGEC	108 % of control

Reference: US20150344570A1 (published 2015)
